± gives the standard deviation of the averaged measurements.
Test: total protein half-life in vivo (active degradation + dilution); higher = more stable protein
[1] = E. coli NCM3722 delta-clpP delta-lon delta-hslV, growth: N-lim chemostat, doubling time 6 h
[2] = E. coli NCM3722 delta-clpP, growth: N-lim chemostat, doubling time 6 h
[3] = E. coli NCM3722 delta-hslV, growth: N-lim chemostat, doubling time 6 h
[4] = E. coli NCM3722 delta-lon, growth: N-lim chemostat, doubling time 6 h
[5] = E. coli NCM3722 delta-smpB, growth: N-lim chemostat, doubling time 6 h
[6] = wild type E. coli NCM3722, growth: C-lim chemostat, doubling time 3 h
[7] = wild type E. coli NCM3722, growth: C-lim chemostat, doubling time 6 h
[8] = wild type E. coli NCM3722, growth: C-lim chemostat, doubling time 12 h
[9] = wild type E. coli NCM3722, growth: N-lim chemostat, doubling time 6 h
[10] = wild type E. coli NCM3722, growth: N-lim chemostat, doubling time 12 h
[11] = wild type E. coli NCM3722, growth: P-lim chemostat, doubling time 6 h
[12] = wild type E. coli NCM3722, growth: P-lim chemostat, doubling time 12 h

Sequence of P0AFC7 (chain, as listed by the source): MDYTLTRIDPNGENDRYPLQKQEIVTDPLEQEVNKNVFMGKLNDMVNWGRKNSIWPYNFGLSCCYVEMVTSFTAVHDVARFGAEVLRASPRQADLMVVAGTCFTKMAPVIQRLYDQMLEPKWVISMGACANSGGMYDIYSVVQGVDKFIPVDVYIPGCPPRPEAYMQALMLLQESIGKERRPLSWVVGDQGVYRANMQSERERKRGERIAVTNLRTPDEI

Row | Substance | total protein half-life in vivo [1] [h] | total protein half-life in vivo [2] [h] | total protein half-life in vivo [3] [h] | total protein half-life in vivo [4] [h] | total protein half-life in vivo [5] [h] | total protein half-life in vivo [6] [h] | total protein half-life in vivo [7] [h] | total protein half-life in vivo [8] [h] | total protein half-life in vivo [9] [h] | total protein half-life in vivo [10] [h] | total protein half-life in vivo [11] [h] | total protein half-life in vivo [12] [h]
1 | MSVENIVNINESNLQQVLEQSMTTPVLFYFWSERSQHCLQLTPILESLAAQYNGQFILAKLDCDAEQMIAAQFGLRAIPTVYLFQNGQPVDGFQGPQPEEAIRALLDKVLPREEELKAQQAMQLMQESNYTDALPLLKDAWQLSNQNGEIGLLLAETLIALNRSEDAEAVLKTIPLQDQDTRYQGLVAQIELLKQAADTPEIQQLQQQVAENPEDAALATQLALQLHQVGRNEEALELLFGHLRKDLTAADGQTRKTFQEILAALGTGDALASKYRRQLYALLY | 4.51 ± 0.3 | 4.61 ± 0.092 | 5.26 ± 0.61 | 6.044 ± 0.054 | 4.75 ± 0.35 | 3.1 ± 0.24 | 6.038 ± 0.01 | 11 ± 0.52 | 5.25 ± 0.16 | 8.64 ± 0.25 | 5.31 ± 0.12 | 11.9 ± 0.69
2 | MPDAVQAPYPAYRPEPNMQTITIAPPKRSWFSLLSWAVVLAVLVVSWQGAEMAPLTLIKDGGNMATFAADFFPPDFSQWQDYLTEMAVTLQIAVWGTALAVVLSIPFGLMSAENLVPWWVYQPVRRLMDACRAINEMVFAMLFVVAVGLGPFAGVLACWRCLSTPPACSPSCFPKRWKRLSPARWKAFAPPVPTSSKRSSTACCHR [P0DP69] |  |  |  |  |  |  |  |  |  |  | 0.274 ± 0.32 | 0.661 ± 0.64
3 | MKPIFSRGPSLQIRLILAVLVALGIIIADSRLGTFSQIRTYMDTAVSPFYFVSNAPRELLDGVSQTLASRDQLELENRALRQELLLKNSELLMLGQYKQENARLRELLGSPLRQDEQKMVTQVISTVNDPYSDQVVIDKGSVNGVYEGQPVISDKGVVGQVVAVAKLTSRVLLICDATHALPIQVLRNDIRVIAAGNGCTDDLQLEHLPANTDIRVGDVLVTSGLGGRFPEGYPVAVVSSVKLDTQRAYTVIQARPTAGLQRLRYLLLLWGADRNGANPMTPEEVHRVANERLMQMMPQVLPSPDAMGPKLPEPATGIAQPTPQQPATGNAATAPAAPTQPAANRSPQRATPPQSGAQPPARAPGGQ | 5.092 ± 0.007 | 4.62 ± 0.051 | 4.54 ± 0.24 |  | 4.76 ± 0.74 | 2.85 ± 0.07 | 5.57 ± 1.1 | 10.25 ± 0.089 | 4.21 ± 0.1 | 8.66 ± 0.23 | 4.98 ± 0.25 | 10.5 ± 0.18
4 | MSTQLDPTQLAIEFLRRDQSNLSPAQYLKRLKQLELEFADLLTLSSAELKEEIYFAWRLGVH | 5.63 ± 0.47 | 3.08 ± 0.39 |  | 2.3 | 1.29 |  |  | 1.9 | 0.632 | 1.08 |  | 0.514
5 | P0AFC7 | 6.19 ± 0.65 | 5.993 ± 0.019 | 6.34 ± 0.17 | 5.81 ± 1.1 | 5.87 ± 0.17 | 2.92 ± 0.093 | 5.98 ± 0.26 | 11.2 ± 1.5 | 6.54 ± 0.77 | 12.5 ± 0.86 | 5.59 ± 0.15 | 12.5 ± 0.61
6 | MELYLDTSDVVAVKALSRIFPLAGVTTNPSIIAAGKKPLDVVLPQLHEAMGGQGRLFAQVMATTAEGMVNDALKLRSIIADIVVKVPVTAEGLAAIKMLKAEGIPTLGTAVYGAAQGLLSALAGAEYVAPYVNRIDAQGGSGIQTVTDLHQLLKMHAPQAKVLAASFKTPRQALDCLLAGCESITLPLDVAQQMISYPAVDAAVAKFEQDWQGAFGRTSI | 4.96 ± 0.38 | 4.345 ± 0.017 | 4.474 ± 0.0021 | 4.44 ± 0.26 | 4.3899 ± 0.004 | 2.703 ± 0.021 | 5.36 | 8.19 ± 0.81 | 3.81 ± 0.38 | 7.04 ± 2.2 | 5.72 ± 0.61 | 10 ± 0.64
7 | MLQNPIHLRLERLESWQHVTFMACLCERMYPNYAMFCQQTGFGDGQIYRRILDLIWETLTVKDAKVNFDSQLEKFEEAIPSADDFDLYGVYPAIDACVALSELVHSRLSGETLEHAVEVSKTSITTVAMLEMTQAGREMSDEELKENPAVEQEWDIQWEIFRLLAECEERDIELIKGLRADLREAGESNIGIIFQQ | 5.09 ± 0.47 | 5.16 ± 0.66 | 4.79 ± 0.12 | 5.23 ± 0.55 | 4.12 ± 1.1 | 3.1 ± 0.088 | 5.93 ± 0.21 |  | 4.84 ± 0.12 | 8.11 ± 0.86 | 6.28 ± 0.52 | 13.7 ± 1.8
8 | MSKLIVPQWPQPKGVAACSSTRIGGVSLPPYDSLNLGAHCGDNPDHVEENRKRLFAAGNLPSKPVWLEQVHGKDVLKLTGEPYASKRADASYSNTPGTVCAVMTADCLPVLFCNRAGTEVAAAHAGWRGLCAGVLEETVSCFADNPENILAWLGPAIGPRAFEVGGEVREAFMAVDAKASAAFIQHGDKYLADIYQLARQRLANVGVEQIFGGDRCTYTENETFFSYRRDKTTGRMASFIWLI | 5.05 ± 0.14 | 4.77 ± 0.76 | 4.885 ± 0.007 | 5.03 ± 0.24 | 4.05 ± 1 | 3.198 ± 0.027 | 5.11 ± 0.72 | 8.61 ± 0.21 | 5.03 ± 0.22 | 9.17 ± 0.77 | 5.644 ± 0.043 | 11.9 ± 0.43
